Results taken from patent US20220119549A1 (TAVOTEK BIOTHERAPEUTICS HONG KONG, published 2022).

B1: TAVO271272 after digestion by MMP2 (antibody)
heavy: EVQLVESGGGLVQPGGSLRLSCAASGFDFADYAMHWVRQAPGKGLEWVSAITWNGGHTDYADSVKGRFTISRDNSKNTLYLQMNSLRAEDTAVYYCAKVSYLSTASSLDYWGQGTLVTVSSASTKGPSVFPLAPSSKSTSGGTAALGCLVKDYFPEPVTVSWNSGALTSGVHTFPAVLQSSGLYSLSSVVTVPSSSLGTQTYICNVNHKPSNTKVDKKVEPKSCDKTHTCPPCPAPPAAGPSVFLFPPKPKDTLMISRTPEVTCVVVDVSHEDPEVKFNWYVDGVEVHNAKTKPREEQYNSTYRVVSVLTVLHQDWLNGKEYKCKVSNKALPAPIEKTISKAKGQPREPQVYTLPPSRDELTKNQVSLTCLVKGFYPSDIAVEWESNGQPENNYKTTPPVLDSDGSFLLYSKLTVDKSRWQQGNVFSCSVLHEALHSHYTQKSLSLSPGK
light: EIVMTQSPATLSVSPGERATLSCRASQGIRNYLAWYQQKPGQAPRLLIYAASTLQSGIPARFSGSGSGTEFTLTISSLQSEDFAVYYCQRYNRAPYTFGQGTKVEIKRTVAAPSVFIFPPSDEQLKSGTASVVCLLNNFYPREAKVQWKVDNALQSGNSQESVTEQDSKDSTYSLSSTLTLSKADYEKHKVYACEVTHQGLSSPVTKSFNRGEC
notes: the antibody part is that of TAVO167127 (EAC271/EAC272 are identical to EAC190/EAC191 but for the IGF2 mutations); not shown: remnant of the protease-cleavable linker left after cleavage
B2: TAVO186187 after digestion by MMP2 (antibody)
heavy: B1 heavy
light: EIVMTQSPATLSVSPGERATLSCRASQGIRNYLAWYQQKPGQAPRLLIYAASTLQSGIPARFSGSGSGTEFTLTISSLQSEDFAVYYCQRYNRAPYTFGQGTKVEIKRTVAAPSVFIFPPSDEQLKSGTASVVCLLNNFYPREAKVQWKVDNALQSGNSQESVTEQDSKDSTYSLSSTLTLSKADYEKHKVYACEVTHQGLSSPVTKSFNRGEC
notes: also called digested shielded antibody; digested TAVO186187; not shown: remnant of the protease-cleavable linker left after cleavage
B3: TAVO188189 after digestion by MMP2 (antibody)
heavy: B1 heavy
light: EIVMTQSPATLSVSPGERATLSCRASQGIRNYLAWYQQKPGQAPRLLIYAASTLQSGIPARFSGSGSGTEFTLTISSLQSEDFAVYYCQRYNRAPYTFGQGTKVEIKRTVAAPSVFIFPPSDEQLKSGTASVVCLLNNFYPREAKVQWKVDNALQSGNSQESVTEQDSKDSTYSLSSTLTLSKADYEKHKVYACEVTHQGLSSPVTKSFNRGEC
notes: also called digested shielded antibody; digested TAVO188189; not shown: remnant of the protease-cleavable linker left after cleavage
B4: TAVO196197 after digestion by MMP3 (antibody)
heavy: B1 heavy
light: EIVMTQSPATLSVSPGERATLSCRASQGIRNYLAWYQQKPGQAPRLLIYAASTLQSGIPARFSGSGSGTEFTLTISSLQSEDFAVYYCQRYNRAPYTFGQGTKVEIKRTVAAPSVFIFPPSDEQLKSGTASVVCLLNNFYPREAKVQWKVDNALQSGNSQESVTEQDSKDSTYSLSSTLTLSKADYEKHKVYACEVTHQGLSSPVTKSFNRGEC
notes: also called digested shielded antibody; digested TAVO196197; not shown: remnant of the protease-cleavable linker left after cleavage
B5: TAVO192193 after digestion by MMP2 (antibody)
heavy: B1 heavy
light: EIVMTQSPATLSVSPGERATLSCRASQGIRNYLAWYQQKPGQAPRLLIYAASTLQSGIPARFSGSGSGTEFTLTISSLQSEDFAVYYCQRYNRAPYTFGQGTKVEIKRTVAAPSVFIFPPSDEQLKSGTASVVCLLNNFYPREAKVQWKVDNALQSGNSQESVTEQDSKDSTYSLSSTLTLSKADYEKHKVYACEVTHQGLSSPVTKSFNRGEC
notes: also called digested shielded antibody; digested TAVO192193; not shown: remnant of the protease-cleavable linker left after cleavage
B6: TAVO194195 after digestion by MMP2 (antibody)
heavy: B1 heavy
light: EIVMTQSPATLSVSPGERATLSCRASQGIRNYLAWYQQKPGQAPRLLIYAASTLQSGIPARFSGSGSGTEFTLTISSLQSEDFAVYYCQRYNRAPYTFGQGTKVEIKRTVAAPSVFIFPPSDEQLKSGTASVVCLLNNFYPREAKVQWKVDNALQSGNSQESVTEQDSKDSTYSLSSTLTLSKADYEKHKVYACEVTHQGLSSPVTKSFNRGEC
notes: also called digested shielded antibody; digested TAVO194195; not shown: remnant of the protease-cleavable linker left after cleavage
B7: TAVO198199 after digestion by uPA (antibody)
heavy: B1 heavy
light: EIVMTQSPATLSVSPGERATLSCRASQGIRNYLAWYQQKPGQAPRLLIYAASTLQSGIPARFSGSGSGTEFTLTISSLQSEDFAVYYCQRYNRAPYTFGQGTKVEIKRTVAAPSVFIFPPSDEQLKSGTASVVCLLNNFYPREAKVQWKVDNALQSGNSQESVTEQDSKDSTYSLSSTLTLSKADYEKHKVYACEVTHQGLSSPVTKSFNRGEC
notes: also called digested shielded antibody; digested TAVO198199; not shown: remnant of the protease-cleavable linker left after cleavage
B8: TAVO190191 after digestion by MMP2 (antibody)
heavy: B1 heavy
light: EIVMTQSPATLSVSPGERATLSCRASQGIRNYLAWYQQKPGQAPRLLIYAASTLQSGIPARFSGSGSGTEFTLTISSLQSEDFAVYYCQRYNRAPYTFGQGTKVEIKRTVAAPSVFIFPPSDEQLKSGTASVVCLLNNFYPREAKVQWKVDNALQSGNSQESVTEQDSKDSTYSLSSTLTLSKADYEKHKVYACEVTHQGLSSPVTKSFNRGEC
notes: also called digested shielded antibody; digested TAVO190191; not shown: remnant of the protease-cleavable linker left after cleavage

Biological target: T1, recombinant human TNFα (human, UniProt P01375 77-233)
T1 construct: Bought protein
Assay: ELISA on human TNFα, after MMP2 cleavage
Protocol: (§1) In this assay, 1 μg/mL recombinant human TNFα (R&D systems) was coated on an ELISA plate. Increasing concentrations of anti-TNFα shielded antibodies were applied on the plate and their binding to the recombinant human TNFα was detected by HRP-conjugated anti-human secondary antibody.

T1 sequence (P01375 77-233 limits assumed): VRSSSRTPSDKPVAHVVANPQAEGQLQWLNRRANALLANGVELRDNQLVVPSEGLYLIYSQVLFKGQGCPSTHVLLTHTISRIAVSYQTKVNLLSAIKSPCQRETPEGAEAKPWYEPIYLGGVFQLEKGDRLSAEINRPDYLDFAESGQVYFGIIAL

Row | binding result | Binder
1 | binds | B1

Biological target: T1, recombinant human TNFα
Assay: ELISA, recombinant human TNFα coated at 1 µg/mL, after protease cleavage
Protocol: as §1

Row | binding result | Binder
2 | binds | B2
3 | binds | B3
4 | binds | B4
5 | binds | B5
6 | binds | B6
7 | binds | B7
8 | binds | B8
